Assay results taken from paper PMC12356840, “Structural basis for substrate recognition mechanism of human SLC26A7” (Nature Communications, 2025).

Biological target: the molecule itself
Experiment: cryo-EM structure; purified SLC26A7 in 25 mM Tris pH 8.0, 150 mM NaCl, 0.02% GDN, 5-10 mg/ml; apo sample and sample with 20 mM sodium iodide; dimer model obtained by C2 symmetry

B1: human SLC26A7 (solute carrier family 26 member 7) (natural protein, UniProt Q8TE54 1-656, looked up)
chain: MTGAKRKKKSMLWSKMHTPQCEDIIQWCRRRLPILDWAPHYNLKENLLPDTVSGIMLAVQQVTQGLAFAVLSSVHPVFGLYGSLFPAIIYAIFGMGHHVATGTFALTSLISANAVERIVPQNMQNLTTQSNTSVLGLSDFEMQRIHVAAAVSFLGGVIQVAMFVLQLGSATFVVTEPVISAMTTGAATHVVTSQVKYLLGMKMPYISGPLGFFYIYAYVFENIKSVRLEALLLSLLSIVVLVLVKELNEQFKRKIKVVLPVDLVLIIAASFACYCTNMENTYGLEVVGHIPQGIPSPRAPPMNILSAVITEAFGVALVGYVASLALAQGSAKKFKYSIDDNQEFLAHGLSNIVSSFFFCIPSAAAMGRTAGLYSTGAKTQVACLISCIFVLIVIYAIGPLLYWLPMCVLASIIVVGLKGMLIQFRDLKKYWNVDKIDWGIWVSTYVFTICFAANVGLLFGVVCTIAIVIGRFPRAMTVSIKNMKEMEFKVKTEMDSETLQQVKIISINNPLVFLNAKKFYTDLMNMIQKENACNQPLDDISKCEQNTLLNSLSNGNCNEEASQSCPNEKCYLILDCSGFTFFDYSGVSMLVEVYMDCKGRSVDVLLAHCTASLIKAMTYYGNLDSEKPIFFESVSAAISHIHSNKNLSKLSDHSEV
notes: full-length wild-type human SLC26A7 (also known as SUT2), UniProt Q8TE54; Homodimer (domain-swapped) in the cryo-EM structures; both were used to capture the protein on the way to the structure; The iodide-loaded sample had 20 mM sodium iodide throughout the purification; also called SUT2; SLC26A7_apo
stoichiometry N: 2
